Tests used:
hIAPP-T7n = hIAPP-T7n (UniProt P00573+P10997); conditions: for Percent total reads (positive selection) / Rank (positive selection): positive selection on hIAPP, high-throughput sequencing; for Rank (positive selection): top enriched sequences
Source text: Next, we examined if our system could discover inhibitors of other disease-associated APPs. We targeted human islet amyloid polypeptide (hIAPP), which forms amyloid deposits in patients with type-2 diabetes that are hypothesized to contribute to […] dysfunction.^40 To create a selection for hIAPP aggregation inhibitors, we simply cloned hIAPP in place of Aβ42 in our selection circuit (FIG. 2B). We used an SP-encoded CZ6 SICLOPPS library (Z=NDT codon encoded amino acid: R, N, D, C, G, H, I, L, F, S, Y, or V) (˜3×10^6 total sequences). This codon set was chosen to reduce the theoretical library size and facilitate library cloning. The library (total of ˜5×10^6 transformants) was cloned on a SP obtained from an additional 250 hours of PACE using a more stringent selection (FIGS. 10A-10D).
We performed five rounds of selection, diluting the SP pool by ten-fold each round (FIG. 4A). […] To verify that we selected phage with higher activity, we measured the propagation of the SP from each round on hIAPP selection cells, normalizing input phage titers to […] to enable head-to-head comparison between phage pools.
(§1) Single colonies of host cells transformed with the appropriate selection plasmids were used to make overnight cultures in 2×YT with maintenance antibiotics. The overnight culture was diluted (1:100) into 4-5 mL DRM with maintenance antibiotics and incubated at 37° C. with shaking until the OD600 of the culture reached ˜0.5, upon which the expanded phage library was added at a titer of 1×10^6 pfu/mL. The culture was incubated at 37° C. with shaking overnight (13-18 h). The next day, the culture was centrifuged at 8,000 rcf for 2 min to obtain the supernatant containing phage. The collected phage was diluted into fresh host cell cultures (10 to 1,000-fold) for the next round of selection, while the rest was stored at 4° C. for downstream analysis. This process was repeated until a significant increase in phage propagation was observed compared with the parent library. Both positive and negative selection rounds were performed using this procedure.
(§2) Sample preparation. Phage stocks collected from the final rounds of library selection were first amplified using LY0145 and LY0146. The PCR product was purified, and adapters added using LY0147 and LY0148. The resulting PCR product was purified and barcoded through a final PCR using index primers to add unique indices for shared Illumina NovaSeq sequencing. The final PCR product was purified, and the concentration measured by Nanodrop. Further sample quality control was performed by the University of Wisconsin-Madison Biotechnology Center (UWBC).
(§3) High-throughput sequencing and data analysis. High-throughput sequencing was performed by UWBC using a shared sequencing service on the NovaSeq 6000 platform. Sequencing reads were demultiplexed by UWBC and analyzed using custom-written Python scripts.

Aβ42-T7n = Aβ42-T7n (UniProt P00573+P05067); conditions: for Fold enrichment in negative vs. positive selection: percent reads negative vs. positive selection; for Percent total reads (negative selection) / Rank (negative selection): subsequent negative selection against Aβ42, high-throughput sequencing
Source text: To create a negative selection, we placed gIII-neg, a dominant-negative form of gIII,^44 under PT7 in our selection circuit. Inhibition of a non-target APP (ex. Aβ42) triggers pIII-neg expression and poisons phage proliferation. A second plasmid produces small amounts of pIII from the phage shock promoter (FIG. 16A). All SPs infecting cells encoding this negative selection receive sufficient pIII to propagate. However, SP that carry a promiscuous or false positive cyclic peptide will also produce pIII-neg and generate non-infectious progeny (FIGS. 16B and 16C). We subjected the hIAPP round 5 phage population to four rounds of negative selection, diluting the phage by 100-fold each round (FIG. 5B).
as §1, §2, §3

hIAPP [1] = biological target: T1, hIAPP (Homo sapiens, UniProt P10997); assay: TEM analysis of hIAPP fibril formation; assay type: biochemical; conditions: 10 μM hIAPP, 40 μM cyclic peptide; for hIAPP fibril formation / aggregation onset by TEM: 2 h; for morphology of hIAPP fibrils by TEM: longer incubation (14 h)
T1 construct: A 1 mg portion of amylin trifluoroacetate salt (Bachem) was purchased as lyophilized solid in a vial; purchased Bachem
T1 sequence (P10997 34-70 limits assumed): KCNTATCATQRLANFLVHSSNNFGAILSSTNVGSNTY
Protocol: Transmission electron microscopy (TEM) was performed at the University of Wisconsin School of Medicine and Public Health Electron Microscopy facility. hIAPP and cyclic peptide were dissolved in 25 mM sodium phosphate buffer (pH 6.8 with 0.4% DMSO) to achieve a molar ratio of 1:4 at concentrations of hIAPP=10 μM and cyclic peptide=40 μM. The sample was incubated quiescently at 32° C. before TEM analysis. 2 μL of the sample was placed onto Formvar-coated copper grids and the excess liquid was blotted away. 2 μL of diluted Nano-W solution was then added to stain the grids and the excess liquid was blotted away. The TEM analysis was performed on Philips CM120 at 80 kV and digital images were obtained with an AMT BioSprint12 camera.

hIAPP [2] = biological target: T1, hIAPP; assay: Native mass spectrometry (nESI-MS) of peptide-hIAPP interaction; assay type: binding; conditions: peptide:hIAPP stoichiometry of complex
Protocol: hIAPP was dissolved in 200 mM ammonium acetate buffer (pH 7.4) to prepare 100 μM hIAPP stock solution. Cyclic peptide was first dissolved in DMSO to 10 mM, then diluted into the buffer to make 1 mM cyclic peptide stock solution. These stock solutions were diluted into the buffer to achieve final concentrations of [hIAPP]=16 μM and [cyclic peptide]=64 μM. The percentage of DMSO in the final solution was 0.64% for all the samples. Prepared samples were incubated quiescently for 20 min at 32° C. Native ESI-MS analysis was then performed on a SELECT SERIES Cyclic IMS Q-TOF (Waters Corp., Wilmslow, U.K.) equipped with nano-ESI interface.
All the samples were analyzed using positive ionization ESI with a capillary voltage of 1.1 kV. The following instrumental parameters were used: source temperature 100° C.; desolvation temperature 250° C.; sampling cone 30 V; backing pressure 2.5 mbar; trap collision energy 6 V; trap DC −4 V; transfer collision energy 4 V. The system was calibrated with NaI cluster ions from a 2 μg/μL 50:50 2-propanol:water solution. Data were acquired over the m/z range of 50-8000 and processed using MassLynxV4.2 (Waters Corp., Wilmslow, U.K.).

Sequence of Aβ42-T7n (P05067+P00573 fused): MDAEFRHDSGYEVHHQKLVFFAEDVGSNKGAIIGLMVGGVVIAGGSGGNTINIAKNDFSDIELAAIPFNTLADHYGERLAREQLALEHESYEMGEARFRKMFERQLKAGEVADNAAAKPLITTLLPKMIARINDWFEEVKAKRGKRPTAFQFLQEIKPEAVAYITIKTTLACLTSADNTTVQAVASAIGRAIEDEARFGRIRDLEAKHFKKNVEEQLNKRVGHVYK
Sequence of hIAPP-T7n (P10997+P00573 fused): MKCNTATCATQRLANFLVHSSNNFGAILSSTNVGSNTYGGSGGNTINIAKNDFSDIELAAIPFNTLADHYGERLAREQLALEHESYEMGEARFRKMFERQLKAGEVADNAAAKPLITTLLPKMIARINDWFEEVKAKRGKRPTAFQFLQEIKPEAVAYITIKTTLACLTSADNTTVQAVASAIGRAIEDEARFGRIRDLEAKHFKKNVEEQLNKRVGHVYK

Substance | Percent total reads (positive selection) (hIAPP-T7n) | Rank (positive selection) (hIAPP-T7n) | Fold enrichment in negative vs. positive selection (Aβ42-T7n) | Percent total reads (negative selection) (Aβ42-T7n) | Rank (negative selection) (Aβ42-T7n) | hIAPP fibril formation / aggregation onset by TEM (hIAPP [1]) | morphology of hIAPP fibrils by TEM (hIAPP [1]) | complex with hIAPP detected by native mass spectrometry (hIAPP [2]) | share of sequencing reads in SP pool (hIAPP-T7n; round 5 of hIAPP positive selection, deep sequencing)
CDLGVFR (cyclised; Circular) [cyclo-CDLGVFR] | 0.08% | 14 | 410.79 | 31.22% | 1 | delay hNAPP aggregation | do not change the overall appearance | 1:1 complexes | 
CHVVGVI (cyclised; Circular) [cyclo-CHVVGVI] | 94.40% | 1 | 0.003 | 0.29% | 20 | no fibrils are observed | No gross differences in morphology | 1:1 complex | ~95%
CRCVFSG (cyclised; Circular) [cyclo-CRCVFSG] | 0.04% | 20 | 701.46 | 24.55% | 2 | delay hNAPP aggregation | do not change the overall appearance | 1:1 complexes | 

From patent US20250122242A1, “SELECTION SYSTEMS, PEPTIDES DETERMINED THEREWITH, AND METHODS OF USING SAME” (Wisconsin Alumni Research Foundation, priority 2023, published 2025)
